Laboratory results reported in patent publication US20220177587A1, “METHODS AND USES OF VARIANT CD80 FUSION PROTEINS AND RELATED CONSTRUCTS” (Alpine Immune Sciences, Inc., priority 2018, published 2022).
Substitutions are numbered along the chain they refer to. Numbers in names are those of the source. One block for each molecule: values may come before it.

Experiments:
CD28 = CD28 (Homo sapiens, UniProt P10747); test: Flow binding to Jurkat/IL2 reporter cells (CD28); design: host or cells: Jurkat cells expressing an IL-2-luciferase reporter; conditions: 33.3 nM; for CD28 MFI at 33.3 nM: Jurkats (CD28)
Experimental: (§1) Binding of selected immunomodulatory fusion proteins to cognate binding partners was assessed. […] Cells were sorted in a Bio-Rad S3 Cell Sorter (Bio-Rad Corp., USA) to >98% purity. Jurkat/IL2 reporter cells, which endogenously express CD28, were used to detect binding to CD28.
(§2) For staining and analysis by flow cytometry, 100,000 cells of appropriate transfected cells were plated in 96-well round bottom plates. Cells were spun down and resuspended in staining buffer (phosphate buffered saline (PBS), 1% bovine serum albumin (BSA), and 0.1% sodium azide) for 20 minutes to block non-specific binding. […] Primary staining was performed on ice for 45 minutes, before washing cells in staining buffer twice. Phycoerythrin (PE)-conjugated anti-human Fc (Jackson ImmunoResearch, USA) was diluted 1:150, added to cells and incubated another 30 minutes on ice. Cells were then washed twice with 150 μL/well stain buffer, fixed in 2% formaldehyde/PBS, and analyzed on Intellicyt flow cytometer (Intellicyt Corp., USA). PE Mean Fluorescence Intensity (MFI) was calculated for each cell type with FlowJo Version 10 software (FlowJo LLC, USA).
(§3) Binding assays were carried out to assess the specificity and affinity of multivalent proteins to cell-expressed CTLA-4, CD28, and PD-L1 counter structures.
(§4) The EC50 for binding also was determined.

huPD-L1 = huPD-L1 (Homo sapiens, UniProt Q9NZQ7); test: Flow binding to CHO cells stably expressing PD-L1; design: huCTLA4 and huPD-L1, full-length mammalian surface expression constructs were generated; expressed in transfected cells; host or cells: CHO cells, lentiviral transduction, sorted to >98% purity; conditions: for PD-L1 MFI at 33.3 nM: CHO cells stably expressing PD-L1
Method in brief: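 Fusion proteins bound to CHO cells stably expressing CTLA4 or PD-L1, or to Jurkat/IL2 reporter cells with endogenous CD28, for 45 min on ice after blocking in PBS/1% BSA. Detection with PE anti-human Fc by flow cytometry; PE MFI per cell type and binding EC50 determined.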

huCTLA4 = huCTLA4 (Homo sapiens, UniProt P16410); test: Flow binding to CHO cells stably expressing CTLA4; design: huCTLA4 and huPD-L1, full-length mammalian surface expression constructs were generated; expressed in transfected cells; host or cells: CHO cells, lentiviral transduction, sorted to >98% purity; conditions: 33.3 nM; for CTLA4 MFI at 33.3 nM: CHO cells stably expressing CTLA4
Experimental: as §1, §2, §3, §4

[1] = Table E11, listed as WT CD80 ECD-Fc = 1.0

huPD-L1, sequence (Q9NZQ7 19-290): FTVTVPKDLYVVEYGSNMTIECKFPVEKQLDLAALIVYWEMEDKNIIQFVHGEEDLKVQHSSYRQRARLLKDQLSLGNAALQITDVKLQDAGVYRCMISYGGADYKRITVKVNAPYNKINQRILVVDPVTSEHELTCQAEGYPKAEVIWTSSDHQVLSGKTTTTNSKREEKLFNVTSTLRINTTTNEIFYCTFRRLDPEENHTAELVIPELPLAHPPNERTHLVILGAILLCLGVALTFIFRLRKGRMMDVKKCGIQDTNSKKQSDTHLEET
huCTLA4, sequence (P16410 36-223): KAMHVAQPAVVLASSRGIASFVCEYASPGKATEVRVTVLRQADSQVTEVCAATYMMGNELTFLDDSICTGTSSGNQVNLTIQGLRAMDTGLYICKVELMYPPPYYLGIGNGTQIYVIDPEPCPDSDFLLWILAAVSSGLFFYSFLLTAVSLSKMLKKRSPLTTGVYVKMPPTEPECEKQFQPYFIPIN

CD28 MFI at 33.3 nM (CD28; Table E20): 98.7
PD-L1 MFI at 33.3 nM (huPD-L1; Table E20, 33.3 nM): 1667
CTLA4 MFI at 33.3 nM (huCTLA4; Table E20): 3227
B1: A26E/M47L/V68M/A71G (protein)
chain: VIHVTKEVKEVATLSCGHNVSVEELEQTRIYWQKEKKMVLTMMSGDLNIWPEYKNRTIFDITNNLSIMILGLRPSDEGTYECVVLKYEKDAFKREHLAEVTLSVKAD

CD28 MFI at 33.3 nM (CD28; Table E19): 91.7
PD-L1 MFI at 33.3 nM (huPD-L1; Table E19, 33.3 nM): 347
CTLA4 MFI at 33.3 nM (huCTLA4; Table E19): 3288
B2: V68M/L85Q (protein)
chain: B1 chain with E26A, L47M, G71A, L85Q

CD28 MFI at 33.3 nM (CD28; Table E19): 159
PD-L1 MFI at 33.3 nM (huPD-L1; Table E19, 33.3 nM): 15307
CTLA4 MFI at 33.3 nM (huCTLA4; Table E19): 28106
B3: E35D/M47L/V68M/L85Q (protein)
chain: B1 chain with E26A, E35D, G71A, L85Q

CD28 MFI at 33.3 nM (CD28; Table E19): 170
CTLA4 MFI at 33.3 nM (huCTLA4; Table E19): 4370
B4: N48K/K89N (protein)
chain: B1 chain with E26A, L47M, N48K, M68V, G71A, K89N

CD28 MFI at 33.3 nM (CD28; Table E19): 60.1
PD-L1 MFI at 33.3 nM (huPD-L1; Table E19, 33.3 nM): 481
CTLA4 MFI at 33.3 nM (huCTLA4; Table E19): 4952
B5: N48K (protein)
chain: B1 chain with E26A, L47M, N48K, M68V, G71A

CD28 MFI at 33.3 nM (CD28; Table E20): 2583
PD-L1 MFI at 33.3 nM (huPD-L1; Table E20, 33.3 nM): 10626
CTLA4 MFI at 33.3 nM (huCTLA4; Table E20): 21900
B6: A26E/M47L/V68M/D90G (protein)
chain: B1 chain with G71A, D90G

CD28 MFI at 33.3 nM (CD28; Table E19): 197
PD-L1 MFI at 33.3 nM (huPD-L1; Table E19, 33.3 nM): 622
CTLA4 MFI at 33.3 nM (huCTLA4; Table E19): 32381
B7: M47V/K89N (protein)
chain: B1 chain with E26A, L47V, M68V, G71A, K89N

CD28 Fold change to WT CD80 (CD28; [1]): 7.8
CD28 MFI at 33.3 nM (CD28; Table E11): 245
PD-L1 Fold change to WT CD80 (huPD-L1; Table E11, 33.3 nM, listed as WT CD80 ECD-Fc = 1.0): 147.9
PD-L1 MFI at 33.3 nM (huPD-L1; Table E11, 33.3 nM): 7618
Ratio of PDL1:CD28 (huPD-L1; Table E11, MFI at 33.3 nM): 31.1
CTLA4 Fold change to WT CD80 (huCTLA4; [1]): 8.9
CTLA4 MFI at 33.3 nM (huCTLA4; Table E11): 15581
B8: E35D/M47V/N48KN68M/L85M (protein)
chain: B1 chain with E26A, E35D, L47V, N48K, G71A, L85M

CD28 MFI at 33.3 nM (CD28; Table E19): 118
PD-L1 MFI at 33.3 nM (huPD-L1; Table E19, 33.3 nM): 754
CTLA4 MFI at 33.3 nM (huCTLA4; Table E19): 2341
B9: N48K/V68M (protein)
chain: B1 chain with E26A, L47M, N48K, G71A

CD28 MFI at 33.3 nM (CD28; Table E19): 60.9
PD-L1 MFI at 33.3 nM (huPD-L1; Table E19, 33.3 nM): 4039
CTLA4 MFI at 33.3 nM (huCTLA4; Table E19): 11134
B10: M47L/V68M/L85Q (protein)
chain: B1 chain with E26A, G71A, L85Q

CD28 MFI at 33.3 nM (CD28; Table E20): 2858
PD-L1 MFI at 33.3 nM (huPD-L1; Table E20, 33.3 nM): 8933
CTLA4 MFI at 33.3 nM (huCTLA4; Table E20): 23485
B11: H18Y/A26E/M47L/D90G (protein)
chain: B1 chain with H18Y, M68V, G71A, D90G
